# Numbering of substitutions follows the chain as printed.
# T1: human CD24 (human, UniProt P25063 27-59, heavily glycosylated, GPI-anchored (as described in the background))
# T1 construct: whole, on cells; Target of all cell-based FACS assays; also called hCD24; Cluster of differentiation 24
# T1 chain (looked up): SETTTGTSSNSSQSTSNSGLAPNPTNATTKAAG
# B1: 100F2E3 (antibody, V domains shown)
# VH: QVQLQQPGAELVRPGSSVKLSCKTSDYTFTSYWMDWVKQRPGQGLEWIGNIYPSDSKTHSNQKFRDKATLTVDKSSSTAYMQLNSLTSEDSAVYYCARRGGYYGYAMDYWGQGTSVTVSS
# VL: DIVMTQSPSSLSVSAGEKVTMSCKSSQSLLNSGNQDNYLAWYQQKPGQPPKLLIYGASIRESGVPDRFTGSGSGTDFTLTISSVQAEDLAVYYCQNDHSYPYTFGGGTKLEIK
# notes: mouse monoclonal antibody
# B2: 33E7E12 (antibody, V domains shown)
# VH: EVKLEESGGGLVQPGGSMKLSCFVSGFTFSNSWMNWVRQSPEKGLEWVAQIQLKSDNYATRYVESVRGRFIISRDDSKSSVSLQMNNLRTEDTGIYYCSSGTDYWGQGTTLTVSS
# VL: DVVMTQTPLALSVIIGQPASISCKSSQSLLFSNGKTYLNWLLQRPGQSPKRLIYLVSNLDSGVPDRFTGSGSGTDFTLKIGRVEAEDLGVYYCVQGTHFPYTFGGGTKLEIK
# notes: mouse monoclonal antibody
# B3: ch100F2E3-hIgG4 (antibody, V domains shown)
# VH: B1 VH
# VL: B1 VL
# notes: chimeric
# B4: ch81A1F8-hIgG4 (antibody, V domains shown)
# VH: EVQLQQSGPELVKPGASVKISCKATGYLFTGYYMNWVKQSPEKSLEWIGEINPNTGDTNNNQKFKAKATMTVDRSSSTAYMQLKRLTSEDSAVYYCVRRDYGTSLDYWGQGTTLTVSS
# VL: DVQITQSPSYLAASPGETITINCRASKSINKYLAWYQEKPGKTNKLLIHSGSTLQSGIPSRFSGSRSGTDFTLTISNLEPEDFAMYYCQQHNEYPITFGAGTKLELK
# notes: chimeric; also called chAb81A1F8; ch81A1F8-IgG4
# B5: ch33E7E12-hIgG1 (antibody, V domains shown)
# VH: B2 VH
# VL: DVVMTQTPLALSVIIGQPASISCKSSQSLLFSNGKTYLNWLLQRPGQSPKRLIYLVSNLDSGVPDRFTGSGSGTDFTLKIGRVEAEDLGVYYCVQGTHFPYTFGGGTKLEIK
# notes: chimeric
# B6: ch33E7E12-hIgG4 (antibody, V domains shown)
# VH: B2 VH
# VL: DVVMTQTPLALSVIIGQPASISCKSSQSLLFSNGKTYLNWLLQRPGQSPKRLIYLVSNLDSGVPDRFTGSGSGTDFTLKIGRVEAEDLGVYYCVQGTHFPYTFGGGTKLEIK
# notes: chimeric
# B7: ch56A7E3-hIgG4 (antibody, V domains shown)
# VH: EVQLQQSGPELVKPGASVKIPCKASGYTFTAYNMDWVKQSHGMSLEWIGDINPINGGTIYNQNFEGKATLTVDKSSSTAYLELRSLTSEDTAVYYCARRGSYYYGSSHYALDFWGQGTSVSVSS
# VL: DIQMTQITSSLSASLGDRVTITCRASQDISNYLNWYQQKPDGTVKLLIYYTSRLLSGVPSRFSGSGSGTDYSLTISNLEQEDIATYFCQQDHTLPRTFGGGTKLEIR
# notes: chimeric
# B8: ch110D4G4-hIgG4 (antibody, V domains shown)
# VH: EVQLQQSGPGLVKPGASVKISCRASGYLFTGYYMNWVKQSPEKSLEWIGEINPNTGDPRYDQKFKAKATLTVDRSSSTAYMHLKSLTSEDSAVYFCARRDYGTSLDYWGQGTTLTVTS
# VL: B4 VL with N30S, H49Y, R66G, T69S, N77S, I96L
# notes: chimeric; also called chAb110D4G4
# B9: ch81A7A10-hIgG4 (antibody, V domains shown)
# VH: QVQLKESGPGLVAPLQSLSITCTVSGFSLSSYGVSWVRQLPGKGLEWLGVIWGDGSTDYHSTLTSRLSFSKDNSESQVFLKLNSLQTDDTATYYCAIFYGYDEGFAYWGQGTLVTVSA
# VL: ENVLTQSPAIMSAFLGEKVTMSCRASSTVNYMYWYQQKSDASPKVWIYYTSRLAPGVPARFSGSGSGNSFSLTISSMEGEDAATYYCQQFTSSPLTFGAGTKLELR
# Target: T1, human CD24
# Experiment: FACS, MCF7 cells
# Method: (§1) Screening & Expansion: The subcloning plates were screened by Acumen assay and the subclones with good binding ability were expanded to 24-wells for confirmation tests. The specificity and cross-reactivity of these subclones were confirmed with FACs analysis. […] Fluorescent dye-conjugated secondary antibody was used to detect the binding of the primary antibody with the cells. Median fluorescence intensity (MFI) was measured by FACs analysis.
row,Binder,FACS MFI
1,B1,7160
2,B2,5410

# Target: T1, human CD24
# Experiment: FACS, CHOK1-hCD24 cells
# Method: (§2) Sequences of some of antibodies from Table 1 were selected to generate and produce human IgG4 chimeric antibodies. […] The protocol for FACs analysis is described as follows: [0536] a. Digested cells using TrypLE™ Express Enzyme (IX); Centrifuged the harvested cells at 400 g for 5 min and discarding the supernatant. [0537] b. Washed the cells 2 times with cold FACS buffer by centrifuging at 400 g for 5 min and discarding the supernatant. [0538] c. […] Incubate at […] for 1 h. [0539] d. Washed the cells twice by using the condition in step b. Resuspended the cells with 100 μl/well diluted 2nd antibody, incubated at 4 degree for 1 h in the dark. [0540] e. Washed the cells twice by using the condition in step b. Resuspended the cells with 100 μl/well cold FACS buffer. Kept the cells in dark for FACS analysis.
Binder,EC50,Max MFI
B3,> 100 nM,59300
B4,3240 nM,85300
B5,2.27 nM,62100
B6,2.66 nM,56600
B7,3.04 nM,54100
B1,1.71 nM,22300
B2,1.86 nM,24100
B8,35.4 nM,99500

# Target: T1, human CD24
# Experiment: FACS, 5637 cells
# Method: as §2
Binder,EC50,Max MFI
B3,3.42 nM,20200
B4,2.47 nM,54100
B5,6.44 nM,42900
B6,7.27 nM,25600
B7,139 nM,61100
B1,9.47 nM,
B2,4.37 nM,
B8,2.18 nM,49900

# Target: T1, human CD24
# Experiment: cell-based or functional assay
Binder,"EC50 (nM), phagocytosis against HT-29 cells","Max phagocytosis Index (%), phagocytosis against HT-29 cells"
B3,1.9 nM,71.2%
B4,0.098 nM,76.6%
B5,0.042 nM,80.4%
B6,3.25 nM,33.3%
B7,4.74 nM,55.2%
B9,0.157 nM,78.4%

# Target: T1, human CD24
# Experiment: FACS, H1975 cells
# Method: as §2
row,Binder,EC50
1,B1,10 nM
2,B2,8.15 nM

# Target: T1, human CD24
# Experiment: FACS, 5637 cells
# Remark: another data set of the same source
# Method: as §1
row,Binder,FACS MFI
1,B1,22100
2,B2,14100

# Target: T1, human CD24
# Experiment: FACS, H1975 cells
# Remark: another data set of the same source
# Method: as §1
row,Binder,FACS MFI
1,B1,6900
2,B2,6110

# Target: T1, human CD24
# Experiment: FACS, Nalm1 cells
# Method: as §2
Binder,EC50,Max MFI
B3,2.78 nM,77700
B4,1.31 nM,101000
B5,5.8 nM,109000
B6,11.8 nM,34400
B7,66.4 nM,80300
B1,8.88 nM,58800
B2,6.2 nM,45500
B8,1.95 nM,111000

# Target: T1, human CD24
# Experiment: FACS, 293F-hCD24 cells
# Method: as §1
row,Binder,FACS MFI
1,B1,44100
2,B2,24200

# Target: T1, human CD24
# Experiment: FACS, A549 cells
# Method: as §2
Binder,EC50,Max MFI
B1,6.58 nM,8670

# Target: T1, human CD24
# Experiment: FACS, 293F-hCD24 cells
# Remark: another data set of the same source
# Method: as §2
Binder,EC50,Max MFI
B3,3.73 nM,60400
B4,3.35 nM,117000
B5,3.55 nM,80900
B6,4.56 nM,55200
B7,3.7 nM,57100
B1,11.4 nM,44100
B2,2.4 nM,24200
B8,2.82 nM,112000

# Target: T1, human CD24
# Experiment: FACS, MDA-MB-468 cells
# Method: as §2
Binder,EC50,Max MFI,FACS MFI
B3,7.39 nM,71900,
B4,5.75 nM,90800,
B5,9.07 nM,56700,
B6,6.8 nM,20100,
B7,18.7 nM,54200,
B1,19.6 nM,,44000
B2,3.45 nM,,10900
B8,5.44 nM,89700,

# Target: T1, human CD24
# Experiment: FACS, Nalm1 cells
# Remark: another data set of the same source
# Method: as §1
row,Binder,FACS MFI
1,B1,58800
2,B2,45500

# Target: T1, human CD24
# Experiment: FACS, MCF7 cells
# Remark: another data set of the same source
# Method: as §2
Binder,EC50,Max MFI
B3,6.85 nM,7960
B4,2.31 nM,25400
B5,4.35 nM,20600
B6,4.75 nM,16100
B7,83.7 nM,22800
B1,8.08 nM,
B2,2.38 nM,
B8,2.01 nM,22700

# Target: T1, human CD24
# Experiment: FACS, HT-29 cells
# Method: as §2
Binder,EC50,Max MFI
B1,9.55 nM,2420
B2,3.4 nM,2450

# Reference: patent US20240052052A1 (ANTENGENE BIOLOGICS, published 2024)
